Laboratory results reported in the DeepSol protein solubility set.

Assay: soluble on expression in E. coli; label from the status in PepcDB or PDB records
With “EHRYGHLLGQINWISLGGGIHFTEPGYALDAFCDRLRRFSEQYGVQVYLEPGEAAITNTATLEVTVLDVMRNEKNLAIVDAATEAHMLDLLIYRMSARVQPDQGPHRYVIYGNSCLAGDVFGEFSFESPLQPGSRISIQDAAGYTMVKKNWFNGVRMPAIAIRELDGEIRLVREFGYQD” the “soluble on expression in E. coli” value was “not soluble”.
For “EILPNFFKSARPIEGLRPYTVLETAGRQIYIQEGCYHCHSQLIRPFQAEVDRYGAYSLSGEYAYDRPFLWGSKRIGPDLHRVGDYRTTDWHEKHMFDPKSVVPHSIMPAYKHLFTKKSDFDTAYAEALTQKKVFGVPYDTENGVKLGSVEEAKKAYLEEAKKITADMKDKRVLEAIERGEVLEIVALIAYLNSLGNSRINANQNA”, the “soluble on expression in E. coli” value was “not soluble”.
With “EKFVFEGKGDEVIGIEKPGDFVVVLDEVEHEKFVRKGDNLIIQHNIDLSEALCGFVRTISTLDGRTIFYRVLPGEVIAHADVKVIHNEGMPMRRASSDKGDLLVQFDVKFPDKINPDAAKKLADLL” the “soluble on expression in E. coli” value was “not soluble”.
With “EKITILADAIPELHVEEANDKVMGSIDWEAALKQSAGKEDLAQEMLQMLVDFIPEVNEWIDKALESDISEEELCHYIHKLHGSSSYCGVPRLKQLCNLIETSLRQHQTISDIEPELFELQDEMEKVTKDANLLLSN” the “soluble on expression in E. coli” value was “not soluble”.
For “ELQKKIKAADDIFPNQKKNPDKKDNPNVLEVLGEYGGDGFFPTLGNNGLNIPDQVFQSFNNFQIENYKISDFKVDIASERDIVQHDKFRFSYVVN”, the “soluble on expression in E. coli” value was “soluble”.
In the case of “ENALIGVNDHTLVTENDGRRWVTREPAIVYFHKKYWFNIIAMIRETGVSYYCNLASPYILDPEALKYIDYDLDVKVFADGEKRLLDVDEYEQHKAQMNYP”, the “soluble on expression in E. coli” value is reported as “not soluble”.
With “EPEGKPRAWVLDFKGSMDAHEVNSLREEITAVLAAAKARDQVVIRLESPGGVVHGYGLAASQLQRLRDKQIPLTVSVDKVAASGGYMMACVANKIVSAPFAILGSIGVVAQIPNLHRFLKNKDIDIELHTAGQYKRTLTMLGENTEEGRRKFREDLNETHHLFKDFVHRMRPGLDIEQVATGEHWYGVQALEKGLVD” the “soluble on expression in E. coli” value was “not soluble”.
With “EQMEGMLCRKQEMEAFGKKAANRSWQNVYCVLRRGSLGFYKDAKAASAGVPYHGEVPVSLARAQGSVAFDYRKRKHVFKLGLQDGKEYLFQAKDEAEMSSWLRVVNAAIA” the “soluble on expression in E. coli” value was “soluble”.
With “ERRQGIAGVKGNQLQLMTESDDVMQALIRDIQLARHNIEMVFYIWQPGGMADQVAESLMAAARRGIHCRLMLDSAGSVAFFRSPWPELMRNAGIEVVEALKVNLMRVFLRRMDLRQHRKMIMIDNYIAYTGSMNMVDPRYFKQDAGVGQWIDLMARMEGPIATAMGIIYSCDWEIETGKRILPPPPDVNIMPFEQASGHTIHTIASGPGFPEDLIHQA” the “soluble on expression in E. coli” value was “not soluble”.
In the case of “ETRECKEALAKSEMNVNMKCQLPNFTAETPIQNVILHEHHIFLGATNYIYVLNEEDLQKVAEYKTGPVLEHPDCFPCQDCSSKANLSGGVWKDNINMALVVDTYYDDQLISCGSVNRGTCQRHVFPHNHTADIQSEVHCIFSPQIEEPSQCPDCVVSALGAKVLSSVKDRFINFFVGNTINSSYFPDHPLHSISVRRLKETKDGFMFLTDQSYIDVLPEFRDSYPIKYVHAFESNNFIYFLTVQRETLDAQTFHTRIIRFCSINSGLHSYMEMPLECILTEKRKKRSTKKEVFNILQAAYVSKPGAQLARQIGASLNDDILFAVFAQSKPDSAEPMDRSAMCAFPIKYVNDFFNKIVNKNNVRCLQHFYGPNHEHCFNRTLLRNSSGCEARRDEYRTEFTTALQRVDLFMGQFSEVLLTSISTFIKGDLTIANLGTSEGRFMQVVVSRSGPSTPHVNFLLDSHPVSPEVIVEHTLNQNGYTLVITGKKITKIPLNGLGCRHFQSCSQCLSAPPFVQCGWCHDKCVRSEECLSGTWTQQICLPAIYKVFPNSAPLEGGTRLTICGWDFGFRRNNKFDLKKTRVLLGNESCTLTLSESTMNTLKCTVGPAMNKHFNMSIIISNGHGTTQYSTFSYVDPVITSISPKYGPMAGGTLLTLTGNYLNSGNSRHISIGGKTCTLKSVSNSILECYTPAQTISTEFAVKLKIDLANRETSIFSYREDLHHHHHH”, the “soluble on expression in E. coli” value is reported as “soluble”.
In the case of “ETVHETPLLIFPPWINKFYILDLKPQNSLLKWLVDQGFTVFVVSWVNPDKSYAGIGMDDYIREGYMRAMAEVRSITRQKQINAVGYCIAGTTLTLTLAHLQKAGDPSVRSATFFTTLTDFSDPGEVGVFLNDDFVDGIERQVAVDGILDKTFMSRTFSYLRSNDLIYQPAIKSYMMGEAPPAFDLLYWNGDGTNLPAQMAVEYLRGLCQQDRLAGGTFPVLGSPVGLKDVTLPVCAIACETDHIAPWKSSFNGFRQFGSTDKTFILSQSGHV”, the “soluble on expression in E. coli” value is reported as “not soluble”.
